Measured values as given in US20080113383A1 (FIBRO GEN, published 2008).
Like-named read-outs stand apart in the source and are kept apart here. Where no end group is shown, it is not given here. [ ]: non-standard residue; d: D form. ΔPro = O=C(O)[C@@H]1C=CCN1; Aze = O=C(O)[C@@H]1CCN1

What was measured:
Experiment in all cases: cell-based or functional assay
EGLN3 [1] = molecular target: EGLN3
EGLN2 [2] = molecular target: EGLN2
EGLN1 [3] = molecular target: EGLN1
EGLN2 [4] = molecular target: EGLN2; remark: listed apart in the source
EGLN1 [5] = molecular target: EGLN1; remark: listed apart in the source
EGLN3 [6] = molecular target: EGLN3; remark: listed apart in the source

Row | Binder | Activity (%)* (EGLN3 [1]) | Activity (%)* (EGLN2 [2]) | Activity (%)* (EGLN1 [3]) | Activity (%)* (EGLN2 [4]) | Activity (%)* (EGLN1 [5]) | Activity (%) (EGLN3 [6])
1 | DTDLDLEACAPYIPADDDFQ [DTDLDLEACApYIPADDDFQ] | 49.4% | 40.4% | 41.3% | – | – | –
2 | DTDLDAEAVAPYIPADDDFQ [DTDLDAEAVApYIPADDDFQ] | 35.6% | 26.3% | 34% | – | – | –
3 | DTDLDLEAHAPYIPADDDFQ [DTDLDLEAHApYIPADDDFQ] | 27% | 32.3% | 34% | – | – | –
4 | DTDLDLEALA[b‑thioproline]YIPADDDFQ [DTDLDLEALA5YIPADDDFQ] | – | – | – | 7.9% | 8.93% | 11.1%
5 | DTDLDLEAMAPYIPADDDFQ [DTDLDLEAMApYIPADDDFQ] | 94.3% | 55.8% | 63.7% | – | – | –
6 | DTDLDTEAVA[Aze]YIPADDDFQ [DTDLDTEAVA8YIPADDDFQ] | – | – | – | – | – | 10.3%
7 | DTDLDLEALA[Aze]YIPADDDFQ [DTDLDLEALA8YIPADDDFQ] | – | – | – | 62% | 78.9% | 169%
8 | DTDLDLEMLAPYIPMDDDFQ [Control peptide DTD20, DTDLDLEMLApYIPMDDDFQ] | 119% | 100% | 100% | 100% | 100% | 119%
9 | DTDLDAEAVA[Aze]YIPADDDFQ [DTDLDAEAVA8YIPADDDFQ] | – | – | – | 3.36% | 10% | 17.2%
10 | DTDLDVEAYAPYIPADDDFQ (not fully specified; printed as DTDLDVEAYApYIPADDDFQ) [DTDLDVEAYApYIPADDDFQ] | 44.5% | 32.4% | 35.5% | – | – | –
11 | DTDLDEEALAPYIPADDDFQ [DTDLDEEALApYIPADDDFQ] | 80.8% | 44.3% | 49.6% | – | – | –
12 | DTDLDVEAFAPYIPADDDFQ (not fully specified; printed as DTDLDVEAFApYIPADDDFQ) [DTDLDVEAFApYIPADDDFQ] | 44.2% | 37.5% | 34.1% | – | – | –
13 | DTDLDIEALAPYIPADDDFQ [DTDLDIEALApYIPADDDFQ] | 149% | 43.7% | 50.7% | – | – | –
14 | DTDLDLEAAAPYIPADDDFQ [DTDLDLEAAApYIPADDDFQ] | 30.2% | 30.9% | 36.1% | – | – | –
15 | DTDLDVEAIA[Aze]YIPADDDFQ [DTDLDVEAIA8YIPADDDFQ] | – | – | – | 2.81% | 7.96% | 14.8%
16 | DTDLDAEALAPYIPADDDFQ [DTDLDAEALApYIPADDDFQ] | 87.2% | 46.9% | 51% | – | – | –
17 | DTDLDTEAYA[Aze]YIPADDDFQ [DTDLDTEAYA8YIPADDDFQ] | – | – | – | 17% | 25.1% | 29.7%
18 | DTDLDLEAWAPYIPADDDFQ (not fully specified; printed as DTDLDLEAWApYIPADDDFQ) [DTDLDLEAWApYIPADDDFQ] | 37.3% | 42.4% | 50.4% | – | – | –
19 | DTDLDDEALAPYIPADDDFQ [DTDLDDEALApYIPADDDFQ] | 65% | 42.8% | 51% | – | – | –
20 | DTDLDLEALA[ΔPro]YIPADDDFQ [DTDLDLEALA4YIPADDDFQ] | – | – | – | 173% | 124% | 74.4%

Row | Binder | Activity (%)* (EGLN3 [1]) | Activity (%)* (EGLN2 [2]) | Activity (%)* (EGLN1 [3]) | Activity (%)* (EGLN2 [4]) | Activity (%)* (EGLN1 [5]) | Activity (%) (EGLN3 [6])
21 | DTDLDIEAIA[Aze]YIPADDDFQ [DTDLDIEAIA8YIPADDDFQ] | – | – | – | 10% | 18.3% | 31.2%
22 | DTDLDLEANAPYIPADDDFQ [DTDLDLEANApYIPADDDFQ] | 42.5% | 37.7% | 49.2% | – | – | –
23 | DTDLDIEAVA[Aze]YIPADDDFQ [DTDLDIEAVA8YIPADDDFQ] | – | – | – | 1.96% | 6.35% | 18.8%
24 | DTDLDTEAFA[Aze]YIPADDDFQ [DTDLDTEAFA8YIPADDDFQ] | – | – | – | 8.9% | 17.4% | 18.7%
25 | DTDLDCEALAPYIPADDDFQ [DTDLDCEALApYIPADDDFQ] | 75.8% | 48.8% | 44.7% | – | – | –
26 | DTDLDVEAVA[Aze]YIPADDDFQ [DTDLDVEAVA8YIPADDDFQ] | – | – | – | – | – | 20.6%
27 | DTDLDGEALAPYIPADDDFQ [DTDLDGEALApYIPADDDFQ] | 40.9% | 32% | 37.3% | – | – | –
28 | DTDLDWEALAPYIPADDDFQ (not fully specified; printed as DTDLDWEALApYIPADDDFQ) [DTDLDWEALApYIPADDDFQ] | 120% | 138% | 108% | – | – | –
29 | DTDLDLEAKAPYIPADDDFQ [DTDLDLEAKApYIPADDDFQ] | 44.1% | 54.6% | 63.2% | – | – | –
30 | DTDLDPEALAPYIPADDDFQ (not fully specified; printed as DTDLDPEALApYIPADDDFQ) [DTDLDPEALApYIPADDDFQ] | 76.6% | 37.4% | 40.8% | – | – | –
31 | DTDLDTEALA[Aze]YIPADDDFQ [DTDLDTEALA8YIPADDDFQ] | – | – | – | 8.52% | 11.4% | 80.1%
32 | DTDLDAEAAA[Aze]YIPADDDFQ [DTDLDAEAAA8YIPADDDFQ] | – | – | – | 4.16% | 10.3% | –
33 | DTDLDAEATA[Aze]YIPADDDFQ [DTDLDAEATA8YIPADDDFQ] | – | – | – | 1.55% | 7.6% | –
34 | DTDLDVEAIAPYIPADDDFQ (not fully specified; printed as DTDLDVEAIApYIPADDDFQ) [DTDLDVEAIApYIPADDDFQ] | 43.3% | 36.6% | 45.3% | – | – | –
35 | DTDLDVEAYA[Aze]YIPADDDFQ [DTDLDVEAYA8YIPADDDFQ] | – | – | – | 27.2% | 32.3% | 33.5%
36 | DTDLDAEAIA[Aze]YIPADDDFQ [DTDLDAEAIA8YIPADDDFQ] | – | – | – | 1.88% | 6.68% | 9.72%
37 | DTDLDLEAVAPYIPADDDFQ (not fully specified; printed as DTDLDLEAVApYIPADDDFQ) [DTDLDLEAVApYIPADDDFQ] | 117% | 86.8% | 99.2% | – | – | –
38 | DTDLDSEALAPYIPADDDFQ (not fully specified; printed as DTDLDSEALApYIPADDDFQ) [DTDLDSEALApYIPADDDFQ] | 61.3% | 23.8% | 34.7% | – | – | –
39 | DTDLDVEAFA[Aze]YIPADDDFQ [DTDLDVEAFA8YIPADDDFQ] | – | – | – | 13.9% | 21.2% | 24.5%
